The assay deals with BG505_mut123_N241 SOSIP (HIV-1 (subtype A, BG505)) (UniProt Q2N0S6). In words: negative-stain EM.

B1: 13B Fab (Fab, V domains shown)
VH: LEESGGGLVQPEGSLTLTCKASGFDFSDYHVQWVRQSPGKGLEFIGGIAYTGNIYYASWAKGRFTISKTSSTTVTLQMTTLTAADTATYFCARAYGYASAPYAQYFNLWGPGTLVTVSS
VL: DIVMTQTPASVSEPVGGTVTINCQASQSRGNNYLSWYQQKPGQSPSLLIYRTSTLASGVPSRFKGSGSGTQFTLTISDLECADAATYYCLYGYYSSRNPDFAFGGGTEVVVK
The molecule B1 had a percent of particles that were trimers with no Fab bound of 57% and a percent of particles with one Fab bound of 43%.

The values are drawn from article PMC7081899.
